Laboratory results taken from patent US20240294593A1 (Genentech, published 2024).

These binders were tested against T1, human PD-1-His (human, UniProt Q15116 25-167, limits assumed) (assay: Octet).
T1 construct: Antigen of the Octet assays; not shown: His tag
T1 sequence (Q15116 25-167 limits assumed): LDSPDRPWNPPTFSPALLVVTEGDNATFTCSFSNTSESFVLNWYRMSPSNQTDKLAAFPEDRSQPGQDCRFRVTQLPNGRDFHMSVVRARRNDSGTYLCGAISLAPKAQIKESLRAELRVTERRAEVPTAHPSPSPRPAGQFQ

Binder | Kd [nM] | koff [s⁻¹] | kon [M⁻¹ s⁻¹]
H1_L1.22 (antibody, V domains shown, also called VL-G33Y; Kabat 27f) VH: EVQLVESGGGLVQPGGSLRLSCAASGFTFSSFGMHWVRQAPGKGLEWVSYISSGSSIIYYADSVKGRFTISRDNAKNSLYLQMNSLRAEDTAVYYCARGGRLVWSPDYWGQGTLVTVSS VL: DIVMTQSPDSLAVSLGERATINCKSSQSLLNSYNQKNYLTWYQQKPGQPPKLLIYWASTRESGVPDRFTGSGSGTDFTLTISSLQAEDVAVYYCQNDYSYPFTFGSGTKLEIKR | 271 | 0.0269 | 99100
H1_L1.36 (antibody, V domains shown, also called VL-Q35A; Kabat 29) VH: EVQLVESGGGLVQPGGSLRLSCAASGFTFSSFGMHWVRQAPGKGLEWVSYISSGSSIIYYADSVKGRFTISRDNAKNSLYLQMNSLRAEDTAVYYCARGGRLVWSPDYWGQGTLVTVSS VL: DIVMTQSPDSLAVSLGERATINCKSSQSLLNSGNAKNYLTWYQQKPGQPPKLLIYWASTRESGVPDRFTGSGSGTDFTLTISSLQAEDVAVYYCQNDYSYPFTFGSGTKLEIKR | 60.9 | 0.00678 | 111000
H1_L1.28 (antibody, V domains shown, also called VL-N34L; Kabat 28) VH: EVQLVESGGGLVQPGGSLRLSCAASGFTFSSFGMHWVRQAPGKGLEWVSYISSGSSIIYYADSVKGRFTISRDNAKNSLYLQMNSLRAEDTAVYYCARGGRLVWSPDYWGQGTLVTVSS VL: DIVMTQSPDSLAVSLGERATINCKSSQSLLNSGLQKNYLTWYQQKPGQPPKLLIYWASTRESGVPDRFTGSGSGTDFTLTISSLQAEDVAVYYCQNDYSYPFTFGSGTKLEIKR | 403 | 0.0539 | 134000
H1_L1.29 (antibody, V domains shown, also called VL-N34T; Kabat 28) VH: EVQLVESGGGLVQPGGSLRLSCAASGFTFSSFGMHWVRQAPGKGLEWVSYISSGSSIIYYADSVKGRFTISRDNAKNSLYLQMNSLRAEDTAVYYCARGGRLVWSPDYWGQGTLVTVSS VL: DIVMTQSPDSLAVSLGERATINCKSSQSLLNSGTQKNYLTWYQQKPGQPPKLLIYWASTRESGVPDRFTGSGSGTDFTLTISSLQAEDVAVYYCQNDYSYPFTFGSGTKLEIKR | 305 | 0.0405 | 133000
H1_L1.35 (antibody, V domains shown, also called VL-Q35K; Kabat 29) VH: EVQLVESGGGLVQPGGSLRLSCAASGFTFSSFGMHWVRQAPGKGLEWVSYISSGSSIIYYADSVKGRFTISRDNAKNSLYLQMNSLRAEDTAVYYCARGGRLVWSPDYWGQGTLVTVSS VL: DIVMTQSPDSLAVSLGERATINCKSSQSLLNSGNKKNYLTWYQQKPGQPPKLLIYWASTRESGVPDRFTGSGSGTDFTLTISSLQAEDVAVYYCQNDYSYPFTFGSGTKLEIKR | 57.6 | 0.00638 | 111000
H1_L1.33 (antibody, V domains shown, also called VL-Q35H; Kabat 29) VH: EVQLVESGGGLVQPGGSLRLSCAASGFTFSSFGMHWVRQAPGKGLEWVSYISSGSSIIYYADSVKGRFTISRDNAKNSLYLQMNSLRAEDTAVYYCARGGRLVWSPDYWGQGTLVTVSS VL: DIVMTQSPDSLAVSLGERATINCKSSQSLLNSGNHKNYLTWYQQKPGQPPKLLIYWASTRESGVPDRFTGSGSGTDFTLTISSLQAEDVAVYYCQNDYSYPFTFGSGTKLEIKR | 42.7 | 0.00566 | 133000
H1_L1.27 (antibody, V domains shown, also called VL-N34R; Kabat 28) VH: EVQLVESGGGLVQPGGSLRLSCAASGFTFSSFGMHWVRQAPGKGLEWVSYISSGSSIIYYADSVKGRFTISRDNAKNSLYLQMNSLRAEDTAVYYCARGGRLVWSPDYWGQGTLVTVSS VL: DIVMTQSPDSLAVSLGERATINCKSSQSLLNSGRQKNYLTWYQQKPGQPPKLLIYWASTRESGVPDRFTGSGSGTDFTLTISSLQAEDVAVYYCQNDYSYPFTFGSGTKLEIKR | 51.5 | 0.0117 | 227000
H1_L1.30 (antibody, V domains shown, also called VL-N34G; Kabat 28) VH: EVQLVESGGGLVQPGGSLRLSCAASGFTFSSFGMHWVRQAPGKGLEWVSYISSGSSIIYYADSVKGRFTISRDNAKNSLYLQMNSLRAEDTAVYYCARGGRLVWSPDYWGQGTLVTVSS VL: DIVMTQSPDSLAVSLGERATINCKSSQSLLNSGGQKNYLTWYQQKPGQPPKLLIYWASTRESGVPDRFTGSGSGTDFTLTISSLQAEDVAVYYCQNDYSYPFTFGSGTKLEIKR | 61.9 | 0.00901 | 146000
H1_L1.23 (antibody, V domains shown, also called VL-N34D; Kabat 28) VH: EVQLVESGGGLVQPGGSLRLSCAASGFTFSSFGMHWVRQAPGKGLEWVSYISSGSSIIYYADSVKGRFTISRDNAKNSLYLQMNSLRAEDTAVYYCARGGRLVWSPDYWGQGTLVTVSS VL: DIVMTQSPDSLAVSLGERATINCKSSQSLLNSGDQKNYLTWYQQKPGQPPKLLIYWASTRESGVPDRFTGSGSGTDFTLTISSLQAEDVAVYYCQNDYSYPFTFGSGTKLEIKR | 57.6 | 0.006 | 104000
H1_L1.34 (antibody, V domains shown, also called VL-Q35N; Kabat 29) VH: EVQLVESGGGLVQPGGSLRLSCAASGFTFSSFGMHWVRQAPGKGLEWVSYISSGSSIIYYADSVKGRFTISRDNAKNSLYLQMNSLRAEDTAVYYCARGGRLVWSPDYWGQGTLVTVSS VL: DIVMTQSPDSLAVSLGERATINCKSSQSLLNSGNNKNYLTWYQQKPGQPPKLLIYWASTRESGVPDRFTGSGSGTDFTLTISSLQAEDVAVYYCQNDYSYPFTFGSGTKLEIKR | 42.1 | 0.00451 | 107000
H1_L1.26 (antibody, V domains shown, also called VL-N34S; Kabat 28) VH: EVQLVESGGGLVQPGGSLRLSCAASGFTFSSFGMHWVRQAPGKGLEWVSYISSGSSIIYYADSVKGRFTISRDNAKNSLYLQMNSLRAEDTAVYYCARGGRLVWSPDYWGQGTLVTVSS VL: DIVMTQSPDSLAVSLGERATINCKSSQSLLNSGSQKNYLTWYQQKPGQPPKLLIYWASTRESGVPDRFTGSGSGTDFTLTISSLQAEDVAVYYCQNDYSYPFTFGSGTKLEIKR | 177 | 0.0229 | 130000
H1_L1.32 (antibody, V domains shown, also called VL-Q35E; Kabat 29) VH: EVQLVESGGGLVQPGGSLRLSCAASGFTFSSFGMHWVRQAPGKGLEWVSYISSGSSIIYYADSVKGRFTISRDNAKNSLYLQMNSLRAEDTAVYYCARGGRLVWSPDYWGQGTLVTVSS VL: DIVMTQSPDSLAVSLGERATINCKSSQSLLNSGNEKNYLTWYQQKPGQPPKLLIYWASTRESGVPDRFTGSGSGTDFTLTISSLQAEDVAVYYCQNDYSYPFTFGSGTKLEIKR | 35 | 0.00476 | 136000
H1_L1.24 (antibody, V domains shown, also called VL-N34H; Kabat 28) VH: EVQLVESGGGLVQPGGSLRLSCAASGFTFSSFGMHWVRQAPGKGLEWVSYISSGSSIIYYADSVKGRFTISRDNAKNSLYLQMNSLRAEDTAVYYCARGGRLVWSPDYWGQGTLVTVSS VL: DIVMTQSPDSLAVSLGERATINCKSSQSLLNSGHQKNYLTWYQQKPGQPPKLLIYWASTRESGVPDRFTGSGSGTDFTLTISSLQAEDVAVYYCQNDYSYPFTFGSGTKLEIKR | 200 | 0.0183 | 91600
H1_L1.25 (antibody, V domains shown, also called VL-N34E; Kabat 28) VH: EVQLVESGGGLVQPGGSLRLSCAASGFTFSSFGMHWVRQAPGKGLEWVSYISSGSSIIYYADSVKGRFTISRDNAKNSLYLQMNSLRAEDTAVYYCARGGRLVWSPDYWGQGTLVTVSS VL: DIVMTQSPDSLAVSLGERATINCKSSQSLLNSGEQKNYLTWYQQKPGQPPKLLIYWASTRESGVPDRFTGSGSGTDFTLTISSLQAEDVAVYYCQNDYSYPFTFGSGTKLEIKR | 152 | 0.0123 | 80900

Results, then the binder that gave them:

Kd [nM] | koff [s⁻¹] | kon [M⁻¹ s⁻¹] | Binder
39.7 | 0.00508 | 128000 | H1_L1.41 (antibody, V domains shown, also called VL-K36H; Kabat 30) VH: EVQLVESGGGLVQPGGSLRLSCAASGFTFSSFGMHWVRQAPGKGLEWVSYISSGSSIIYYADSVKGRFTISRDNAKNSLYLQMNSLRAEDTAVYYCARGGRLVWSPDYWGQGTLVTVSS VL: DIVMTQSPDSLAVSLGERATINCKSSQSLLNSGNQHNYLTWYQQKPGQPPKLLIYWASTRESGVPDRFTGSGSGTDFTLTISSLQAEDVAVYYCQNDYSYPFTFGSGTKLEIKR
30.5 | 0.00439 | 144000 | H1_L1.38 (antibody, V domains shown, also called VL-Q35I; Kabat 29) VH: EVQLVESGGGLVQPGGSLRLSCAASGFTFSSFGMHWVRQAPGKGLEWVSYISSGSSIIYYADSVKGRFTISRDNAKNSLYLQMNSLRAEDTAVYYCARGGRLVWSPDYWGQGTLVTVSS VL: DIVMTQSPDSLAVSLGERATINCKSSQSLLNSGNIKNYLTWYQQKPGQPPKLLIYWASTRESGVPDRFTGSGSGTDFTLTISSLQAEDVAVYYCQNDYSYPFTFGSGTKLEIKR
36.5 | 0.0049 | 134000 | H1_L1.42 (antibody, V domains shown, also called VL-K36D; Kabat 30) VH: EVQLVESGGGLVQPGGSLRLSCAASGFTFSSFGMHWVRQAPGKGLEWVSYISSGSSIIYYADSVKGRFTISRDNAKNSLYLQMNSLRAEDTAVYYCARGGRLVWSPDYWGQGTLVTVSS VL: DIVMTQSPDSLAVSLGERATINCKSSQSLLNSGNQDNYLTWYQQKPGQPPKLLIYWASTRESGVPDRFTGSGSGTDFTLTISSLQAEDVAVYYCQNDYSYPFTFGSGTKLEIKR
54.5 | 0.00596 | 109000 | H1_L1.39 (antibody, V domains shown, also called VL-K36R; Kabat 30) VH: EVQLVESGGGLVQPGGSLRLSCAASGFTFSSFGMHWVRQAPGKGLEWVSYISSGSSIIYYADSVKGRFTISRDNAKNSLYLQMNSLRAEDTAVYYCARGGRLVWSPDYWGQGTLVTVSS VL: DIVMTQSPDSLAVSLGERATINCKSSQSLLNSGNQRNYLTWYQQKPGQPPKLLIYWASTRESGVPDRFTGSGSGTDFTLTISSLQAEDVAVYYCQNDYSYPFTFGSGTKLEIKR
38.1 | 0.00455 | 120000 | H1_L1.40 (antibody, V domains shown, also called VL-K36E; Kabat 30) VH: EVQLVESGGGLVQPGGSLRLSCAASGFTFSSFGMHWVRQAPGKGLEWVSYISSGSSIIYYADSVKGRFTISRDNAKNSLYLQMNSLRAEDTAVYYCARGGRLVWSPDYWGQGTLVTVSS VL: DIVMTQSPDSLAVSLGERATINCKSSQSLLNSGNQENYLTWYQQKPGQPPKLLIYWASTRESGVPDRFTGSGSGTDFTLTISSLQAEDVAVYYCQNDYSYPFTFGSGTKLEIKR
29 | 0.00364 | 126000 | H1_L1.37 (antibody, V domains shown, also called VL-Q35F; Kabat 29) VH: EVQLVESGGGLVQPGGSLRLSCAASGFTFSSFGMHWVRQAPGKGLEWVSYISSGSSIIYYADSVKGRFTISRDNAKNSLYLQMNSLRAEDTAVYYCARGGRLVWSPDYWGQGTLVTVSS VL: DIVMTQSPDSLAVSLGERATINCKSSQSLLNSGNFKNYLTWYQQKPGQPPKLLIYWASTRESGVPDRFTGSGSGTDFTLTISSLQAEDVAVYYCQNDYSYPFTFGSGTKLEIKR
